In patent US20100255578A1:
Like-named read-outs stand apart in the source and are kept apart here.

Assays:
H271-H296 [1] = experiment: ELISA; H271-H296 coated at 20 ug/mL; HRP-labeled FNH3-8, ABTS; blank subtracted
H271-H296 [2] = experiment: ELISA; H271-H296 coated at 12 ug/mL; HRP-labeled FNH3-8, ABTS; blank subtracted
[3] = biological target: H-296, a polypeptide comprising a heparin binding domain and a CS-1 domain of fibronectin (Homo sapiens (Human)) (UniProt P02751); experiment: ELISA; H-296 coated at 25 ug/mL in 0.2 M acetate buffer pH 3.8; HRP-labeled FNH3-8, ABTS
H296-H271 [4] = experiment: ELISA; H296-H271 coated at 15 ug/mL; HRP-labeled FNH3-8, ABTS; blank subtracted
H271-H296 [5] = experiment: ELISA; H271-H296 coated at 10 ug/mL; HRP-labeled FNH3-8, ABTS; blank subtracted
[6] = biological target: H296-H296 (modified fibronectin fragment in which two H-296's are connected); experiment: ELISA as in Example 34; H296-H296 coated at 6.25 ug/mL in PBS; HRP-labeled FNH3-8
H296-H296-HT = experiment: ELISA; H296-H296-HT coated at 5 ug/mL; HRP-labeled FNH3-8, ABTS; blank subtracted
[7] = biological target: H-296, a polypeptide comprising a heparin binding domain and a CS-1 domain of fibronectin (Homo sapiens (Human)) (UniProt P02751); experiment: ELISA as in Example 34; H-296 coated at 100 ug/mL in pH 5.6 acetate buffer; HRP-labeled FNH3-8
H296-H271 [8] = experiment: ELISA; H296-H271 coated at 13 ug/mL; HRP-labeled FNH3-8, ABTS; blank subtracted
H271-H296 [9] = experiment: ELISA; H271-H296 coated at 18 ug/mL; HRP-labeled FNH3-8, ABTS; blank subtracted
[10] = biological target: H296-H296 (modified fibronectin fragment in which two H-296's are connected); experiment: ELISA as in Example 34; H296-H296 coated at 25 ug/mL in PBS; HRP-labeled FNH3-8
H296-H296-H296-HT [11] = experiment: ELISA; H296-H296-H296-HT coated at 25 ug/mL; HRP-labeled FNH3-8, ABTS; blank subtracted
H296-H296-H296-HT [12] = experiment: ELISA; H296-H296-H296-HT coated at 4 ug/mL; HRP-labeled FNH3-8, ABTS; blank subtracted
[13] = biological target: H-296, a polypeptide comprising a heparin binding domain and a CS-1 domain of fibronectin (Homo sapiens (Human)) (UniProt P02751); experiment: ELISA; H-296 coated at 25 ug/mL in 0.2 M phosphate buffer pH 7.4; HRP-labeled FNH3-8, ABTS
H296-H271 [14] = experiment: ELISA; H296-H271 coated at 5 ug/mL; HRP-labeled FNH3-8, ABTS; blank subtracted
H296-H271 [15] = experiment: ELISA; H296-H271 coated at 7 ug/mL; HRP-labeled FNH3-8, ABTS; blank subtracted
[16] = biological target: CH-296, a polypeptide comprising a cell binding domain, a heparin binding domain and a CS-1 domain of fibronectin (Homo sapiens (Human)) (UniProt P02751); experiment: ELISA; CH-296 coated at 25 ug/mL; HRP-labeled FNH3-8, ABTS; blank subtracted
[17] = biological target: CH-296, a polypeptide comprising a cell binding domain, a heparin binding domain and a CS-1 domain of fibronectin (Homo sapiens (Human)) (UniProt P02751); experiment: as above; remark: listed apart in the source
[18] = biological target: H296-H296 (modified fibronectin fragment in which two H-296's are connected); experiment: ELISA as in Example 34; H296-H296 coated at 3.125 ug/mL in PBS; HRP-labeled FNH3-8
[19] = biological target: H-296, a polypeptide comprising a heparin binding domain and a CS-1 domain of fibronectin (Homo sapiens (Human)) (UniProt P02751); experiment: ELISA; H-296 coated at 50 ug/mL in 0.2 M acetate buffer pH 3.8; HRP-labeled FNH3-8, ABTS
[20] = biological target: H-296, a polypeptide comprising a heparin binding domain and a CS-1 domain of fibronectin (Homo sapiens (Human)) (UniProt P02751); experiment: ELISA; H-296 coated at 50 ug/mL in 0.2 M acetate buffer pH 5.6; HRP-labeled FNH3-8, ABTS
H271-H296 [21] = experiment: ELISA; H271-H296 coated at 16 ug/mL; HRP-labeled FNH3-8, ABTS; blank subtracted
[22] = biological target: H-296, a polypeptide comprising a heparin binding domain and a CS-1 domain of fibronectin (Homo sapiens (Human)) (UniProt P02751); experiment: ELISA as in Example 34; H-296 coated at 50 ug/mL in pH 5.6 acetate buffer; HRP-labeled FNH3-8
[23] = biological target: H296-H296 (modified fibronectin fragment in which two H-296's are connected); experiment: ELISA as in Example 34; H296-H296 coated at 12.5 ug/mL in PBS; HRP-labeled FNH3-8
[24] = biological target: H-296, a polypeptide comprising a heparin binding domain and a CS-1 domain of fibronectin (Homo sapiens (Human)) (UniProt P02751); experiment: ELISA; H-296 coated at 25 ug/mL in 0.2 M phosphate buffer pH 8.0; HRP-labeled FNH3-8, ABTS
[25] = biological target: H-296, a polypeptide comprising a heparin binding domain and a CS-1 domain of fibronectin (Homo sapiens (Human)) (UniProt P02751); experiment: ELISA as in Example 34; H-296 coated at 200 ug/mL in pH 5.6 acetate buffer; HRP-labeled FNH3-8
H296-H296-H296-HT [26] = experiment: ELISA; H296-H296-H296-HT coated at 5 ug/mL; HRP-labeled FNH3-8, ABTS; blank subtracted

Sequence of H271-H296 (chain, as listed by the source limits assumed): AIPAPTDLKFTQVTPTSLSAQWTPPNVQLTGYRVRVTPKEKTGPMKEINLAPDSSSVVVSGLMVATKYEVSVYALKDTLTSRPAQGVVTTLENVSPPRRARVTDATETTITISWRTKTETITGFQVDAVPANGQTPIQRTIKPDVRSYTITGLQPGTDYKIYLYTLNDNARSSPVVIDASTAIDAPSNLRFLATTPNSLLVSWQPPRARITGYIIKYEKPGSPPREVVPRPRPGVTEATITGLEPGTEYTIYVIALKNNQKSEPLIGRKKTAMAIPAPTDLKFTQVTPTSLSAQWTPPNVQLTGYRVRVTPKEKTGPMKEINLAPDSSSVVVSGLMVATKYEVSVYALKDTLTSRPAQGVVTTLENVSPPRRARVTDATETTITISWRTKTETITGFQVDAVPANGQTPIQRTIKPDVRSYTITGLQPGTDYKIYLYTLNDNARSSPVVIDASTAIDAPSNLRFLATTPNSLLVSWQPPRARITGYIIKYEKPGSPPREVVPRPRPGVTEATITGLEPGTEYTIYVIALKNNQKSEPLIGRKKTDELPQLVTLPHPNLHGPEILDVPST
Sequence of H296-H271 (chain, as listed by the source limits assumed): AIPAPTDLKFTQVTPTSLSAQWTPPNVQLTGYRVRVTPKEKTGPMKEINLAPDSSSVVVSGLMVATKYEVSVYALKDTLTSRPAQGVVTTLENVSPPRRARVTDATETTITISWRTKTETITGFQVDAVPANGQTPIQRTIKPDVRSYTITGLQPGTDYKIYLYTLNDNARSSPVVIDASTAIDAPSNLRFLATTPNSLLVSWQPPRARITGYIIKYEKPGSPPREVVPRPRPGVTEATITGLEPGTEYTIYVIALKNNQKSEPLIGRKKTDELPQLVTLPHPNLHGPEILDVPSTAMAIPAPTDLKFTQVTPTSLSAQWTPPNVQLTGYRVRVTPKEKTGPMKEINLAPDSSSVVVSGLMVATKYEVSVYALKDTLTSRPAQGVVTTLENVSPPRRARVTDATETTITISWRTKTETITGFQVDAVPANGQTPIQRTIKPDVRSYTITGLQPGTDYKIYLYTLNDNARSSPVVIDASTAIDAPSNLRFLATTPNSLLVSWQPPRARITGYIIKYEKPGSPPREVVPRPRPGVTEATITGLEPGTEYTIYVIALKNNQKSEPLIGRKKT
Sequence of H296-H296-H296-HT (chain, as listed by the source limits assumed): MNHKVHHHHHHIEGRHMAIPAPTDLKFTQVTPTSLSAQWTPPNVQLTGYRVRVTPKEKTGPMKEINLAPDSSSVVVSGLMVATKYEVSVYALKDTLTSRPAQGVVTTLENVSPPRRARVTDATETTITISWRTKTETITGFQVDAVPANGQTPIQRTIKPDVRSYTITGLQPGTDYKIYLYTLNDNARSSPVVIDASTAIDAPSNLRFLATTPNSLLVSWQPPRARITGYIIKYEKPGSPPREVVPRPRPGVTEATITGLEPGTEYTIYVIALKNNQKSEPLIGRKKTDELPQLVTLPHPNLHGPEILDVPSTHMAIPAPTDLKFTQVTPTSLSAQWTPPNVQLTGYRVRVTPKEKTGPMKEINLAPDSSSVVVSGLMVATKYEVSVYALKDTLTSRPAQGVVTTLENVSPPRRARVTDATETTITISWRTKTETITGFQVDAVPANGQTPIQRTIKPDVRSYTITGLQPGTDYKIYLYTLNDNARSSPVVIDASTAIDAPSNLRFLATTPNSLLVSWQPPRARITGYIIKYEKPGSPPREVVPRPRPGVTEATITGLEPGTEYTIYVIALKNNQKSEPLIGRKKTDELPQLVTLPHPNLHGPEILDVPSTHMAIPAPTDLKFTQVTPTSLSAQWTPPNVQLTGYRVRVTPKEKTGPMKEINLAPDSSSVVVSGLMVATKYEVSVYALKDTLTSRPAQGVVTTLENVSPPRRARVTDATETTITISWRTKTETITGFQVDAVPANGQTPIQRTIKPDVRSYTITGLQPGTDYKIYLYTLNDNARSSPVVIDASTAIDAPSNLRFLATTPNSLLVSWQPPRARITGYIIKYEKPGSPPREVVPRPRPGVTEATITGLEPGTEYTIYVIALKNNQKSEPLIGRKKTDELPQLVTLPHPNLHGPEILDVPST
Sequence of H296-H296-HT (chain, as listed by the source limits assumed): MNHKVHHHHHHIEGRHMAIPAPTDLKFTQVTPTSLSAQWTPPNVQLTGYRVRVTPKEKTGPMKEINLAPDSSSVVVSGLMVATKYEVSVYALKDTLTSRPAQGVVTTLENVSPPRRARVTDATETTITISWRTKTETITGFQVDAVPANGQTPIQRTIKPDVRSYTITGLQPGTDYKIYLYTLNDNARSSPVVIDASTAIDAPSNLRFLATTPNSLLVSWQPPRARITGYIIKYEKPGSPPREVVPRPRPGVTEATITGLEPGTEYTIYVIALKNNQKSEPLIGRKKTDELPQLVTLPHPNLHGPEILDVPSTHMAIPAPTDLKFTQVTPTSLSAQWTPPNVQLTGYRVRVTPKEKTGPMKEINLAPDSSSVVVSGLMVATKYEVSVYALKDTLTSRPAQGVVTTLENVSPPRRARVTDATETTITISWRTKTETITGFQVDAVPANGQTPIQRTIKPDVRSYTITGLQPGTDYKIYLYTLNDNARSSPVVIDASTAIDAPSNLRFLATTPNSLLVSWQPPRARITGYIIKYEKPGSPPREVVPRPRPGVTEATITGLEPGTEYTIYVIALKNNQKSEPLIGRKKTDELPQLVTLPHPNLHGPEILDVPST

“FNH3-8 antibody (manufactured by TAKARA BIO INC.) labeled with HRP” gave a 405 nm (Found Value - Blank) (H271-H296 [1]) of 0.603, a 405 nm (Found Value - Blank) (H271-H296 [2]) of 0.639 and an absorbance at 405 nm [3] of 0.243. For the same substance, the 405 nm (Found Value - Blank) (H296-H271 [4]) was 0.635, the 405 nm (Found Value - Blank) (H271-H296 [5]) was 0.6 and the absorbance at 405 nm [6] was 1.29. It also gave a 405 nm (Found Value - Blank) (H296-H296-HT) of 0.878, an absorbance at 405 nm [7] of 0.499 and a 405 nm (Found Value - Blank) (H296-H271 [8]) of 0.609. For the same substance, the 405 nm (Found Value - Blank) (H271-H296 [9]) was 0.61, the absorbance at 405 nm [10] was 2.02 and the 405 nm (Found Value - Blank) (H296-H296-H296-HT [11]) was 0.991. The 405 nm (Found Value - Blank) (H296-H296-H296-HT [12]) was 0.81, the absorbance at 405 nm [13] was 0.08 and the 405 nm (Found Value - Blank) (H296-H271 [14]) was 0.448. The 405 nm (Found Value - Blank) (H296-H271 [15]) was 0.518, the 405 nm (Found Value - Blank) [16] was 0.859 and the 405 nm (Found Value - Blank) [17] was 0.564. For the same substance, the absorbance at 405 nm [18] was 1.01, the absorbance at 405 nm [19] was 0.213 and the absorbance at 405 nm [20] was 0.567. It also gave a 405 nm (Found Value - Blank) (H271-H296 [21]) of 0.594, an absorbance at 405 nm [22] of 0.304 and an absorbance at 405 nm [23] of 1.73. The absorbance at 405 nm [24] was 0.104, the absorbance at 405 nm [25] was 0.964 and the 405 nm (Found Value - Blank) (H296-H296-H296-HT [26]) was 0.87.
